Literature values as cited in article PMC9256694.

Molecular target: IL-2 receptor beta/gamma common chain (Homo sapiens) (UniProt P14784)
UniProt P14784, sequence (P14784 27-240, chain 1 of 2): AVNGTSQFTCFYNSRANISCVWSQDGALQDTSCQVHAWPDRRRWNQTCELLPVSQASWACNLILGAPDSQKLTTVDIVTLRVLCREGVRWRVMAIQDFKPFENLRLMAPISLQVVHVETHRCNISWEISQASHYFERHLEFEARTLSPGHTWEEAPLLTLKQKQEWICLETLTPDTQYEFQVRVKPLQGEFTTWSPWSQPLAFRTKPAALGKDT
UniProt P14784, sequence (P31785 23-262, chain 2 of 2, further chain): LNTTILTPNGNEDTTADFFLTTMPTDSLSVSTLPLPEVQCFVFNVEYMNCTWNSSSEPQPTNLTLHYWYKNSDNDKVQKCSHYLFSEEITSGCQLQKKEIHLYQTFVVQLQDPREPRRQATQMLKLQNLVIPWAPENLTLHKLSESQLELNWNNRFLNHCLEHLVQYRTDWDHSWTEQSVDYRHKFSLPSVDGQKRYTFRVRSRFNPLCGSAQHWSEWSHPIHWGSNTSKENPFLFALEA

IL-2, sequence (P60568 21-153): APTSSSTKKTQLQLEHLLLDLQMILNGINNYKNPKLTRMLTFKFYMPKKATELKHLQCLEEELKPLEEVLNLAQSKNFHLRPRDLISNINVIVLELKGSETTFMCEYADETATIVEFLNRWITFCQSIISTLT

- Kd: 1 nM
Substance: IL-2 (from UniProt P60568)
